Consider 2 substances from article PMC11861921.

Test [1] concerns the target rat brain synaptosomes (sites that bind 125I-charybdotoxin). Kind of test: radioligand binding.
Test [2] has as its target rat brain synaptosomes (sites that bind 125I-apamin). Put plainly: radioligand binding; competition with 125I-apamin on rat brain synaptosomes.
In test [3] the target is human Kv1.3 channel (human) (UniProt P22001).
Chain of UniProt P22001 (P22001 whole entry): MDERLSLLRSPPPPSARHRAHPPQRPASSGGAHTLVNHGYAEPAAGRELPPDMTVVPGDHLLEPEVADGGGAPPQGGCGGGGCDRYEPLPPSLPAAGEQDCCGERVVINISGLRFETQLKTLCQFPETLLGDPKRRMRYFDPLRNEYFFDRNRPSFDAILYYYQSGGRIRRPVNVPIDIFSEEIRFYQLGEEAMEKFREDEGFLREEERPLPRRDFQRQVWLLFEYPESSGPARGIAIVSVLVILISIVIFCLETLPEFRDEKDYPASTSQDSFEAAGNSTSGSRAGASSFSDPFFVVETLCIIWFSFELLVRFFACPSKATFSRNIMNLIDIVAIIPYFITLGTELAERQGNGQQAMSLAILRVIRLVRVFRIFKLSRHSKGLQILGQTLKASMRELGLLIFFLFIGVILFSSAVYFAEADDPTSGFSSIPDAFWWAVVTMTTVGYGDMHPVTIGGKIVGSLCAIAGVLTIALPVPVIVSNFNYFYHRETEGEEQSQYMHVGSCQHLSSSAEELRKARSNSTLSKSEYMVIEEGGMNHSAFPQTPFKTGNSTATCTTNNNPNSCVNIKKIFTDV

As to MTX1 (peptide), the IC50 in test [1] is 5 nM; in test [2] it was 1.7 nM. In test [3], Tb11a (peptide) had a decrease in Kv1.3 maximum current, patch-clamp (voltage clamp, whole-cell configuration) on HEK293T cells of 50%.

The term IC50 denotes the concentration at which inhibition is half-maximal. A high value points to weaker potency in that assay.
